The target in the test is mouse CD117 (stem cell factor receptor, c-Kit) on mouse bone marrow and lung cells (mouse) (UniProt P05532). The test is described as follows: cell-based or functional assay.
Chain of UniProt P05532 (P05532 25-979): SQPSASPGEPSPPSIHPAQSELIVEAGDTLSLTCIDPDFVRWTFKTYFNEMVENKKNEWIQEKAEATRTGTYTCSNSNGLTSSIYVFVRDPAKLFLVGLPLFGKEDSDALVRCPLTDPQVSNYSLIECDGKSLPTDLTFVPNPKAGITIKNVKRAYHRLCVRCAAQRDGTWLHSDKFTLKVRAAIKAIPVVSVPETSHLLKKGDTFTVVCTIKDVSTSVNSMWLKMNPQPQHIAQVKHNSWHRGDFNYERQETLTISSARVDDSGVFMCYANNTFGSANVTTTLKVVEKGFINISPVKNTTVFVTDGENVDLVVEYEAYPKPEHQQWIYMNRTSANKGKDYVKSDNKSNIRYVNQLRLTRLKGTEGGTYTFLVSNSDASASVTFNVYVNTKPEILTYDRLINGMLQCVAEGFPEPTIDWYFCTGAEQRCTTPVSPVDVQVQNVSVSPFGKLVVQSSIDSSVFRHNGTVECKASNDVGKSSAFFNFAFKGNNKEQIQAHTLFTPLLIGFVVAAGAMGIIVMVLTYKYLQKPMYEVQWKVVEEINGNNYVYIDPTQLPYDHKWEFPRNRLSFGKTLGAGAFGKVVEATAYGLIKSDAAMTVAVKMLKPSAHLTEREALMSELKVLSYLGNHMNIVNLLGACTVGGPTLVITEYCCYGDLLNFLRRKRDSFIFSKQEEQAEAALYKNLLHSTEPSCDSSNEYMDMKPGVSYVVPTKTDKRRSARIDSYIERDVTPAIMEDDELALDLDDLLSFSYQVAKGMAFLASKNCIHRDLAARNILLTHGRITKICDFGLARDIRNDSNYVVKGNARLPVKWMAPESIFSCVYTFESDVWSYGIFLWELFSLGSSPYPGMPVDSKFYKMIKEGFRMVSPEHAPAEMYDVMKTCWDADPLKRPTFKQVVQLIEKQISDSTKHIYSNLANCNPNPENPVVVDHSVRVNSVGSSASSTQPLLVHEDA

For the substance “purified rat anti-mouse CD117 (c-kit), clone 2B8 (BioLegend 93235), conjugated to LNP-mRNA (antibody)”, the gene editing (tdTomato) frequency in cKit+ lung cells after in vivo CD117/LNP-Cre turned out to be 90%; the luciferase activity normalized to the frequency of antigen positive cells, Lin- cells, relative to CD45/LNP amounted to 700 fold; the luciferase activity normalized to the frequency of antigen positive cells, whole bone marrow (WBM), relative to CD45/LNP came to 500 fold.

(Values after US20260191929A1.)
